Data taken from article PMC6294515, “Structural basis of the specific interaction of SMRT corepressor with histone deacetylase 4” (Nucleic Acids Research, 2018).

B1: I-A: SRD3c deletion construct K1316–G1390 (protein, UniProt Q9Y618 1316-1390, looked up, fragment)
chain: GRVGRAISSASIEGLMGRAIPPERHSPHHLKEQHHIRGSITQGIPRSYVEAQEDYLRREAKLLKREGTPPPPPPS
B2: II: SRD3c deletion construct P1396–S1515 (protein, UniProt Q9Y618 1396-1515, looked up, fragment)
chain: AYKTQALGPLKLKPAHEGLVATVKEAGRSIHEIPREELRHTPELPLAPRPLKEGSITQGTPLKYDTGASTTGSKKHDVRSLIGSPGRTFPPVHPLDVMADARALERACYEESLKSRPGTA
B3: SRD3n: N-terminal region of SRD3 (R1128–E1289) (protein, UniProt Q9Y618 1128-1289, looked up, fragment)
chain: GMSVQLHVPYSEHAKAPVGPVTMGLPLPMDPKKLAPFSGVKQEQLSPRGQAGPPESLGVPTAQEASVLRGTALGSVPGGSITKGIPSTRVPSDSAITYRGSITHGTPADVLYKGTITRIIGEDSPSRLDRGREDSLPKGHVIYEGKKGHVLSYEGGMSVTQC

Legend:
HDAC4c D759Y = conditions: HDAC4c mutant versus wild-type; cited from earlier work
Source text: Next, we analyzed the mutational effects of SM1 mutants by OPTHiS screening (Figure 5A). […] In the peptide-complex structures, G+1, S+2 and T+4 residues on both peptides interact, directly or through water molecules, with residues on the cleft wall of the structural zinc-binding subdomain (Figure 3E). Mutations in this peptide region (G+1R, S+2D and T+4N/T+4A) altered the binding affin ... || Among the seven HDACs whose catalytic domain structures have been reported, HDAC4c is unique in that it has an open conformation when it binds to non-peptide molecules. In agreement with this, mutations at the ^+1GSI^+3 residues of two motifs and R+9 residue of the SM1 lead to a loss of its binding activity to HDAC4c/-5c (Figures 1 and 5). The class IIa HDAC-specific residues (D759, H842, and F871), which are located at the cleft to and entrance to the catalytic zinc-binding site, interact directly or indirectly with these residues of bound peptides (Figure 3D and E). Further, HDAC4c mutants o ...

HDAC4 = conditions: cited from earlier work
Source text: In contrast to other HDACs, class IIa HDACs have low deacetylase activity ([33]). However, their HDAC domains are directly involved in the transcriptional repression of several genes by forming a supra-complex with the NCoR/SMRT-HDAC3 complex ([16],[17]).

HDAC4c = assay: Interaction with HDAC4c (yeast two-hybrid, GST pull-down, BiFC); conditions: for interaction with HDAC4c, domain mapping: yeast two-hybrid only, strain EGY48, LexA-fused HDAC4c and SRD3c deletion constructs, liquid β-galactosidase assay
HDAC5c = assay: Interaction with HDAC5c (yeast two-hybrid, GST pull-down, BiFC); conditions: for interaction with HDAC5c, domain mapping: yeast two-hybrid only, strain EGY48, LexA-fused HDAC5c and SRD3c deletion constructs, liquid β-galactosidase assay

| Molecule | interaction with HDAC4c, domain mapping (HDAC4c) | interaction with HDAC5c, domain mapping (HDAC5c) | further results |
| --- | --- | --- | --- |
| GSITQGIPR [SM1, conserved GSI motif 1361-1369 of SRD3c, …] | – | – | binding affinity to HDAC4c D759Y (HDAC4c D759Y): abrogated interactions |
| SMRT: silencing mediator for retinoid and thyroid receptor, general corepressor | – | – | change in deacetylase activity of HDAC4 in the presence of SMRT (HDAC4): lack of noticeable changes in the deacetylase activity of HDAC4 |
| B1 | independently interacted with HDAC4c/-5c | independently interacted with HDAC4c/-5c | – |
| B2 | independently interacted with HDAC4c/-5c, although the binding strength of region II was relatively weaker than that of region I-A | independently interacted with HDAC4c/-5c, although the binding strength of region II was relatively weaker than that of region I-A | – |
| B3 | – | – | binding to HDAC4c (HDAC4c; yeast two-hybrid (β-galactosidase), GST pull-down, BiFC in HEK293 cells, result in words): marginal interaction; binding to HDAC5c (HDAC5c; yeast two-hybrid (β-galactosidase), in vitro GST pull-down, BiFC in HEK293 cells, result in words): marginal interaction |
